The target in assay [1] is PTIP (UniProt Q6ZW49). Nature of the assay: reciprocal co-IP, Western blot. As to conditions: reference: WT 53BP1 (before and 1 h after IR); sites T334. In general terms: A western blot detects proteins with antibodies after separation by electrophoresis.
In assay [2] the target is RIF1 (UniProt Q5UIP0). The experiment in a line: reciprocal co-IP, Western blot. The note with it: reference: WT 53BP1 (before and 1 h after IR); sites T334.

With “53BP1 (from UniProt Q12888) T334A 53BP1 (before and 1 h after IR)”, the “binding against the reference” value in assay [1] and in assay [2] was “stronger” each time.

(Values after paper PMC12618078.)
